From paper PMC4661071 come the findings set out here.

Broadly, the Kd is the constant that tells how readily two partners part at equilibrium.

The target in experiment [1] is recombinant soluble EPCR (extracellular region, residues 18–210), biotinylated (UniProt Q9UNN8). Nature of the experiment: BLI. (In general: BLI is a label-free optical method that tracks binding on a fibre tip over time.)
The target in experiment [2] is wild-type EPCR on stably transfected CHO745 cells (UniProt Q9UNN8). As to the kind of experiment: flow cytometry on cells. For orientation: A flow cytometer gives signals particle by particle.
Experiment [3] has as its target EPCR R81A on stably transfected CHO745 cells (UniProt Q9UNN8). As to the kind of experiment: flow cytometry on cells.

Take “Var06CIDRα1.1 recombinant protein (domain or fragment)”: in experiment [1], the Kd was 98 nM. For the same substance, in experiment [2], the MFI of Fl-APC on the cells with 250 µg/ml of the CIDR domain (1329 without) came to 429; the double positive cells (CIDR and Fl-APC) at 250 µg/ml of the CIDR domain turned out to be 62%.

In experiment [2], “Var07CIDRα1.4 recombinant protein (domain or fragment)” yielded an MFI of Fl-APC on the cells with 100 µg/ml of the CIDR domain (1329 without) of 385; a double positive cells (CIDR and Fl-APC) at 100 µg/ml of the CIDR domain of 28%. Also, the decrease of binding relative to wild type EPCR in experiment [3] turned out to be 80%.

In experiment [2], “Var19CIDRα1.1 recombinant protein (from UniProt A3R6S3 1-3373) (domain or fragment)” gave an MFI of Fl-APC on the cells with 250 µg/ml of the CIDR domain (1329 without) of 746; a double positive cells (CIDR and Fl-APC) at 250 µg/ml of the CIDR domain of 69%. The substance also came in with a decrease of binding relative to wild type EPCR in experiment [3] of 90%.

As to “activated protein C (APC), unlabeled (from UniProt P04070 43-197; P04070 43-197) (enzyme)”, in experiment [2], the mean fluorescence intensity (MFI) of APC labeling, without CIDR domains came to 994 and the percent of CHO745-EPCR cells labeled for APC, without CIDR domains was found to be 76%.

As to “fluorescein-labelled activated protein C (Fl-APC) (from UniProt P04070 43-197; P04070 43-197) (enzyme)”, in experiment [2], the MFI of Fl-APC, without CIDR domains stood at 1330 and the percent of cells that bound 50 µg/ml Fl-APC, without CIDR domains was determined as 78%.
